Assay results: paper PMC2080633, “Dimerization of inositol monophosphatase Mycobacterium tuberculosis SuhB is not constitutive, but induced by binding of the activator Mg^2+” (BMC Structural Biology, 2007)

Target: the molecule itself
Experiment: AUC; sedimentation velocity, 1.0 mg.ml^-1 SuhB, no Mg^2+; 20 mM Tris-HCl pH 7.9, 50 mM NaCl, 40,000 rpm, 4°C; monomer to dimer

B1: Mycobacterium tuberculosis SuhB (Rv2701c), inositol monophosphatase (enzyme)
chain: MTRPDNEPARLRSVAENLAAEAAAFVRGRRAEVFGISRAGDGDGAVRAKSSPTDPVTVVDTDTERLLRDRLAQLRPGDPILGEEGGGPADVTATPSDRVTWVLDPIDGTVNFVYGIPAYAVSIGAQVGGITVAGAVADVAARTVYSAATGLGAHLTDERGRHVLRCTGVDELSMALLGTGFGYSVRCREKQAELLAHVVPLVRDVRRIGSAALDLCMVAAGRLDAYYEHGVQVWDCAAGALIAAEAGARVLLSTPRAGGAGLVVVAAAPGIADELLAALQRFNGLEPIPD
notes: Inositol monophosphatase SuhB (Rv2701c) of Mycobacterium tuberculosis; the crystal model covers residues 5-34, 54-85, 98-253, 260-286; also called IMPase
  stoichiometry N: 2
